From patent EP3025729B1 (Glaxo Group Limited, dated 2018)

Columns and labels:
[1] = molecular target: T1, human serum amyloid P component (SAP) (human, UniProt P02743 20-223); assay: ELISA, human SAP directly immobilised at 1 µg/mL
T1 construct: Purified from human material; In some assays it stood denatured (reduced SDS-PAGE); this is said under assay; also called human SAP; homo sapiens SAP

cynomologus monkey SAP = molecular target: T2, cynomologus monkey SAP (cynomolgus monkey, UniProt A0A7N9DA00 20-223); assay: Biacore, cyno SAP amine-coupled on C1 chip, culture supernatant
T2 construct: also called cyno SAP; cynomolgus monkey serum amyloid P component
T2 sequence (A0A7N9DA00 entry or part of it): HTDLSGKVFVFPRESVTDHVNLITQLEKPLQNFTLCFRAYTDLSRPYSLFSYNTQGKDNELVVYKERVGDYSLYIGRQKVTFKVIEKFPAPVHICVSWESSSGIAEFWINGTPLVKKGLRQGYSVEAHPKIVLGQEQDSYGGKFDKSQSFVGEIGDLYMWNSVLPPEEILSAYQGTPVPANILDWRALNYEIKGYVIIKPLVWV

T1 sequence (P02743 20-223, form in doubt): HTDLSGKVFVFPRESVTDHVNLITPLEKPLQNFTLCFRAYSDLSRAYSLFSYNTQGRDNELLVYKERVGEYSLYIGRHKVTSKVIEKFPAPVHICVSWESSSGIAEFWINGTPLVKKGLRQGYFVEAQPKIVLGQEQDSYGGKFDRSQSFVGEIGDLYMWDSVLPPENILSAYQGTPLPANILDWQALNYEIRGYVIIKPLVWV

fold loss of human SAP binding activity compared to SAP-K chimera [1] [fold]	binding result (cynomologus monkey SAP)	Binder
~2		SAP-K H1L0 humanised antibody (antibody, V domains shown) VH: QVQLVQSGAEVKKPGSSVKVSCKASGYTFTSYWMHWVRQAPGQGLEWMGMIHPNSVNTNYNEKFKSRVTITADKSTSTAYMELSSLRSEDTAVYYCARRNDYYWYFDVWGQGTLVTVSS VL: DIQMTQSPSSLSASVGDRVTITCKASQNVNSNVAWYQQKPGKAPKLLIYSASYRYSGVPSRFSGSGSGTDFTLTISSLQPEDFATYYCQQCNNYPFTFGQGTKLEIK
~2	no binding	SAP-K H0L0 humanised antibody (antibody, V domains shown, also called SAP-K HOLO) VH: QVQLVQSGAEVKKPGSSVKVSCKASGGTFSSYWMHWVRQAPGQGLEWMGMIHPNSVNTNYNEKFKSRVTITADKSTSTAYMELSSLRSEDTAVYYCARRNDYYWYFDVWGQGTLVTVSS VL: DIQMTQSPSSLSASVGDRVTITCKASQNVNSNVAWYQQKPGKAPKLLIYSASYRYSGVPSRFSGSGSGTDFTLTISSLQPEDFATYYCQQCNNYPFTFGQGTKLEIK
~2		SAP-K H2L0 humanised antibody (antibody, V domains shown) VH: QVQLVQSGAEVKKPGSSVKVSCKASGYTFTSYWMHWVRQAPGQGLEWIGMIHPNSVNTNYNEKFKSRATITADKSTSTAYMELSSLRSEDTAVYYCARRNDYYWYFDVWGQGTLVTVSS VL: DIQMTQSPSSLSASVGDRVTITCKASQNVNSNVAWYQQKPGKAPKLLIYSASYRYSGVPSRFSGSGSGTDFTLTISSLQPEDFATYYCQQCNNYPFTFGQGTKLEIK
